Read-outs that look alike come from different tables or passages of the source.

Data set [1] has as its system ZNF695 (Homo sapiens), Q8IW36-1. Conditions: proteome array.
For data set [2], the system named is T1, DPH2 (Homo sapiens), Q9BQC3-2.
T1 sequence: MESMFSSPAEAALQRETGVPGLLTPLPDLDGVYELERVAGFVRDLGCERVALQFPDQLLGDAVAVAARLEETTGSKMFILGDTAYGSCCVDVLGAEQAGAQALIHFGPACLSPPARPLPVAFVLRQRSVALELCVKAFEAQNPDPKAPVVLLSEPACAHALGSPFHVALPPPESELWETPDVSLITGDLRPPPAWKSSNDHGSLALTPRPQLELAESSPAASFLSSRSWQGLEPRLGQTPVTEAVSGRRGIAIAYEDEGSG
Conditions: proteome array.

The target in a further data set is PGA5 (Homo sapiens) (UniProt P0DJD9). Conditions: proteome array, scrambled control.
The test system of data set [3] is T2, DAZ2 (Homo sapiens), Q13117-3.
T2 sequence: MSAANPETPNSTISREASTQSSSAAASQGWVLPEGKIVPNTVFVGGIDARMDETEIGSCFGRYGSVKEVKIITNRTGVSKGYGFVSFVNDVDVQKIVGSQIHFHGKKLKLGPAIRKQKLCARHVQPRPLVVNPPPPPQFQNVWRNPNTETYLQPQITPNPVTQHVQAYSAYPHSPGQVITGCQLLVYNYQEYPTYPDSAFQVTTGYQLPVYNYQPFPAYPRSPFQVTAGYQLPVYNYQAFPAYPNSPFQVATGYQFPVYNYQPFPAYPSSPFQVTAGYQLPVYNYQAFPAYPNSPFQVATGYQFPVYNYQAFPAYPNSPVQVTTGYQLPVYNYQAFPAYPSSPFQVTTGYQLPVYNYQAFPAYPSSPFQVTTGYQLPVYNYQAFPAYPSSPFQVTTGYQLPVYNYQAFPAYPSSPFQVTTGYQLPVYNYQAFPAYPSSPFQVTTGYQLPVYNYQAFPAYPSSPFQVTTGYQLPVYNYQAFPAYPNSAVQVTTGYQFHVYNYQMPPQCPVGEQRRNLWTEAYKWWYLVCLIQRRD
Conditions: proteome array, scrambled control.

The target of a further data set is T3, ORAOV1 (Homo sapiens) (UniProt Q8WV07).
T3 sequence: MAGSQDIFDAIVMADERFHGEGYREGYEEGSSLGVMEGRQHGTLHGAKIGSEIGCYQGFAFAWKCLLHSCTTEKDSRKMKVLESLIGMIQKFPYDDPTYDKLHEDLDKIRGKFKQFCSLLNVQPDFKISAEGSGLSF
Conditions: proteome array, scrambled control.

Data set [4] relates to MITF (Homo sapiens), O75030-2. Conditions: proteome array, scrambled control.
The next data set has as its target T4, ADARB2 (Homo sapiens) (UniProt Q9NS39).
T4 sequence: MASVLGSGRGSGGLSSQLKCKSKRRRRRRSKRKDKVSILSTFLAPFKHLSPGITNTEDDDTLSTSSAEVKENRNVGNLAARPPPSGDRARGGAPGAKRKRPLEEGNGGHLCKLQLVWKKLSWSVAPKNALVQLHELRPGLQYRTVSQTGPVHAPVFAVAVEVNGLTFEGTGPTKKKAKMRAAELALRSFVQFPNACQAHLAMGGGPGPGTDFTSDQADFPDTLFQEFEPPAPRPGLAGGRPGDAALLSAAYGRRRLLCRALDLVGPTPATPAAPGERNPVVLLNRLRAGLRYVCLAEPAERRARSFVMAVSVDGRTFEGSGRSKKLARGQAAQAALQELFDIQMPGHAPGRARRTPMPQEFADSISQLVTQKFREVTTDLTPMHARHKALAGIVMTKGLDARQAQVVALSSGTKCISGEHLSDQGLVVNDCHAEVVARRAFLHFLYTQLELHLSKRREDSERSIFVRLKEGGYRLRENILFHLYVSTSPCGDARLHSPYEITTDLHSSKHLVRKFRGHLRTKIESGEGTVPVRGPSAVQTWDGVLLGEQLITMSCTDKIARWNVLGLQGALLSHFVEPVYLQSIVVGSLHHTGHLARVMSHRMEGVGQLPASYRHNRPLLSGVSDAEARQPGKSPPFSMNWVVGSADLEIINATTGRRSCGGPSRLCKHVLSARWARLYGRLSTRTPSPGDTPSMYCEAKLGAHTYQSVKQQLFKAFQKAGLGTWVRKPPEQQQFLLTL
Conditions: proteome array, scrambled control.

The target in the next data set is TRIM32 (Homo sapiens) (UniProt Q13049). Conditions: proteome array, scrambled control.
Another data set deals with JARID2 (Homo sapiens) (UniProt Q92833). Conditions: proteome array, scrambled control.
The next data set addresses T5, RANGAP1 (Homo sapiens) (UniProt P46060).
T5 sequence: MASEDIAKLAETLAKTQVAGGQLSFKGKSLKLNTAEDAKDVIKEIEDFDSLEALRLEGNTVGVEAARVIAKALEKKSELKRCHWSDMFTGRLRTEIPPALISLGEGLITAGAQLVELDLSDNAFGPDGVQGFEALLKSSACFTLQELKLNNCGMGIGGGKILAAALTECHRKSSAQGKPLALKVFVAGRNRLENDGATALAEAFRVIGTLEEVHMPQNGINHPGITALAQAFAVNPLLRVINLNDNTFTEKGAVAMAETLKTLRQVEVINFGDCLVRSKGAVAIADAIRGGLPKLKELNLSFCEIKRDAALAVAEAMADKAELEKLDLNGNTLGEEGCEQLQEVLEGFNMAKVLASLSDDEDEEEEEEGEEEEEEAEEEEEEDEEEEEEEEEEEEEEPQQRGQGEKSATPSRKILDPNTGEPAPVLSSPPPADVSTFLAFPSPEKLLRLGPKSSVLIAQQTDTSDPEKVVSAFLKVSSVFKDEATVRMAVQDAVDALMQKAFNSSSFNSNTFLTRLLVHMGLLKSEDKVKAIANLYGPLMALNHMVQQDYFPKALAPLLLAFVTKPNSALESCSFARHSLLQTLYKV
Conditions: proteome array, scrambled control.

A further data set concerns the target T6, PTER (Homo sapiens) (UniProt Q96BW5).
T6 sequence: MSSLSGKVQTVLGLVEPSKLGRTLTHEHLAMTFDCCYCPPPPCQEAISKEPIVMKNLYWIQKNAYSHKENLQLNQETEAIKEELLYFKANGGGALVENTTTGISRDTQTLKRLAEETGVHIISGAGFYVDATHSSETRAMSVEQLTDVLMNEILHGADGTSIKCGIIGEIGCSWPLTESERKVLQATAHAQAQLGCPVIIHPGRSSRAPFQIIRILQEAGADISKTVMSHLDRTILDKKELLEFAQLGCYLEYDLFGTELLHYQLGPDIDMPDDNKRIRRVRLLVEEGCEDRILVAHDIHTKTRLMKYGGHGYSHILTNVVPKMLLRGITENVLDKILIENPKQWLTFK
Conditions: proteome array, scrambled control.

Data set [5] deals with SOX6 (Homo sapiens), P35712-4. Conditions: proteome array, scrambled control.
Another data set concerns the target T7, NDST1 (Homo sapiens) (UniProt P52848).
T7 sequence: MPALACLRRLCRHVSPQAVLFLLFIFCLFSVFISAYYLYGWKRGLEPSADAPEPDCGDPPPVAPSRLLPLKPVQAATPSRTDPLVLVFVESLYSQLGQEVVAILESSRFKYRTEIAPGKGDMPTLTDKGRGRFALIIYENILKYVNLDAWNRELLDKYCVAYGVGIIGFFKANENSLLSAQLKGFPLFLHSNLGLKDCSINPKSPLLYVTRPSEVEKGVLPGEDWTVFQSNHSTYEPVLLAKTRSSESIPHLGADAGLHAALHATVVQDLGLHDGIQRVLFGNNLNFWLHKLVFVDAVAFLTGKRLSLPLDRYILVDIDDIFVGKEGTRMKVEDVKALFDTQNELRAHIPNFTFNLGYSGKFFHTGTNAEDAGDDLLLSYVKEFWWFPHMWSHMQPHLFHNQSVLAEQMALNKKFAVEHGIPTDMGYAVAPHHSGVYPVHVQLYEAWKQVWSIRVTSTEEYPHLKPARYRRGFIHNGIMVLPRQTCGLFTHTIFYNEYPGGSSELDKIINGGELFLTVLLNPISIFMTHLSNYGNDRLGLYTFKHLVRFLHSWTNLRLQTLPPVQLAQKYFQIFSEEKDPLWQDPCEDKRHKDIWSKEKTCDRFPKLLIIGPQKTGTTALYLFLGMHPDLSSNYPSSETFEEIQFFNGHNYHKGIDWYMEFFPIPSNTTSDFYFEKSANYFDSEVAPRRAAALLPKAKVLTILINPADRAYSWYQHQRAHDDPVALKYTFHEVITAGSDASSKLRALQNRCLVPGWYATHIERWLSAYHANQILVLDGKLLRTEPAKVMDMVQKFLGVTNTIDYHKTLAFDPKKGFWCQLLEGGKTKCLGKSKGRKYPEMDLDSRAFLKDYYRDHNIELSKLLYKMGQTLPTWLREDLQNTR
Conditions: proteome array, scrambled control.

Another data set concerns the target CYP2C9 (Homo sapiens) (UniProt P11712). Conditions: proteome array, scrambled control.
A further data set addresses T8, NUDT6 (Homo sapiens) (UniProt P53370).
T8 sequence: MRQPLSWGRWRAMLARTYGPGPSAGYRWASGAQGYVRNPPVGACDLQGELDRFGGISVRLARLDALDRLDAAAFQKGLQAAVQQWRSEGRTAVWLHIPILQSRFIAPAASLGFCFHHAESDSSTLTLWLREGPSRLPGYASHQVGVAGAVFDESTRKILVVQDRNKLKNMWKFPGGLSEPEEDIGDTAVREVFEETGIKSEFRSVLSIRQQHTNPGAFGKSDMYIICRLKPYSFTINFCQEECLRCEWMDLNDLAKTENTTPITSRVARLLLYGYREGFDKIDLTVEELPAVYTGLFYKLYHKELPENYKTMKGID
Conditions: proteome array, scrambled control.

The target in another data set is WBP11 (Homo sapiens) (UniProt Q9Y2W2). Conditions: proteome array, scrambled control.
In another data set the target is T9, HMGB2 (Homo sapiens) (UniProt P26583).
T9 sequence: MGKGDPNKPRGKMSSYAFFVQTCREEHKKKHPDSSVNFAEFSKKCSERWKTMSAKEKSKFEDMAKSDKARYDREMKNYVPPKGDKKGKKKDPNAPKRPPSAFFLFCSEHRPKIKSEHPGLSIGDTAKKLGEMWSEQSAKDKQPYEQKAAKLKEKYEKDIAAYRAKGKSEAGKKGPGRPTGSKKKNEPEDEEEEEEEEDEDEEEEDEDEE
Conditions: proteome array, scrambled control.

For a further data set, the target named is T10, TCL1B (Homo sapiens) (UniProt O95988).
T10 sequence: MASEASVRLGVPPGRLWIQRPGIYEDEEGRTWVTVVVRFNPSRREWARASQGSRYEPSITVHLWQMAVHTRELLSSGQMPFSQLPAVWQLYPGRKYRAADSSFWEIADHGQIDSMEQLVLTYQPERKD
Conditions: proteome array, scrambled control.

A further data set has as its target T11, MPP7 (Homo sapiens) (UniProt Q5T2T1).
T11 sequence: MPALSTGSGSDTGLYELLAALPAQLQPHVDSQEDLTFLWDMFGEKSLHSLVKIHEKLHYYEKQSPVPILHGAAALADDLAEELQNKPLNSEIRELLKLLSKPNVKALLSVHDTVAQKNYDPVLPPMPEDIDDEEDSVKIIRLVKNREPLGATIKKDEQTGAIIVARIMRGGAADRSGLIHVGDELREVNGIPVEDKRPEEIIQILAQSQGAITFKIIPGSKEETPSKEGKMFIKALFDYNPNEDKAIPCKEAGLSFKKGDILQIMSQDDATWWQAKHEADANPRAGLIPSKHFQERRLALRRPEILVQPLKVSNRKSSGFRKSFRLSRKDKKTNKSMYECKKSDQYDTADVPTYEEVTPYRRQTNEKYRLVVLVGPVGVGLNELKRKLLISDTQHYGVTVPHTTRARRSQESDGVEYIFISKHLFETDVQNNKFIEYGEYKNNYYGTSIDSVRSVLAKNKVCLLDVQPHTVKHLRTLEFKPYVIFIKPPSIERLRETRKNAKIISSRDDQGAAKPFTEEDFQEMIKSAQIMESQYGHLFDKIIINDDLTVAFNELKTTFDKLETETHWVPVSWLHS
Conditions: proteome array, scrambled control.

ZNF695 (Homo sapiens), Q8IW36-1, sequence (Q8IW36 other isoform, or with tags, fused parts or gaps): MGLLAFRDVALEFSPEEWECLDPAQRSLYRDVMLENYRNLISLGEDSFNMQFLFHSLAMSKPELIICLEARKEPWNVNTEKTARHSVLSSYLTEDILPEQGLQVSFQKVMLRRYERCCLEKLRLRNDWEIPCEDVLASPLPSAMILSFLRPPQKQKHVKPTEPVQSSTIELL
WBP11 (Homo sapiens), sequence (Q9Y2W2 whole entry): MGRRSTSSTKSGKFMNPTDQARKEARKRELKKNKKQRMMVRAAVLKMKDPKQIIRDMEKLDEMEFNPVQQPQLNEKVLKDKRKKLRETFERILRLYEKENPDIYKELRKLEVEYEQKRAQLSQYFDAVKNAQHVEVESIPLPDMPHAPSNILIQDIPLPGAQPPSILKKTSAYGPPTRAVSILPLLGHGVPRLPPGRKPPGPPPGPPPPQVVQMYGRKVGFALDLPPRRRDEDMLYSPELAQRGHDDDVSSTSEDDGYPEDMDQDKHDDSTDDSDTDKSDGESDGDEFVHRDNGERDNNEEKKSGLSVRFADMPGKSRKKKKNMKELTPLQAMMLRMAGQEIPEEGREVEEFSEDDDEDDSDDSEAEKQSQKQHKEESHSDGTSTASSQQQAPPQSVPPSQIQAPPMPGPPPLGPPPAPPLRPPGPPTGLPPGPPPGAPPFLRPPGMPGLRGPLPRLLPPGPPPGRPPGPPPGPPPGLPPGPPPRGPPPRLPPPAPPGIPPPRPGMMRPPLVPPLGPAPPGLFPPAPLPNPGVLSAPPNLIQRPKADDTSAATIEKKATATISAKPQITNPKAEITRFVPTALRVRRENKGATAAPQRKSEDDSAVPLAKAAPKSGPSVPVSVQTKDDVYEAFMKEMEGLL
MITF (Homo sapiens), O75030-2, sequence (O75030 other isoform, or with tags, fused parts or gaps): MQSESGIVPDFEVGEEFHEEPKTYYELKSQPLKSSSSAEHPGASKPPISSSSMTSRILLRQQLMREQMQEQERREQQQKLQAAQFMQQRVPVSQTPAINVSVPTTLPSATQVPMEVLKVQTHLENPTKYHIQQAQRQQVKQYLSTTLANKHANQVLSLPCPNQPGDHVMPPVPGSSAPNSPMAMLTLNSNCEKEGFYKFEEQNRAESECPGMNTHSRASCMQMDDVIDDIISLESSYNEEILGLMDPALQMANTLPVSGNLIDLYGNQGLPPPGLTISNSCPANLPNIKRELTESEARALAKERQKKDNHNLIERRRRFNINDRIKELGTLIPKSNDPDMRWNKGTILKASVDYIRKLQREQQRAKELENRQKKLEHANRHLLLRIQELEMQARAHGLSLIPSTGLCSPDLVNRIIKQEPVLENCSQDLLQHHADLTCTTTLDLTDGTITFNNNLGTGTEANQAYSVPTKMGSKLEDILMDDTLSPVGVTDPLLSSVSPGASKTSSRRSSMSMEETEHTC
JARID2 (Homo sapiens), sequence (Q92833 whole entry): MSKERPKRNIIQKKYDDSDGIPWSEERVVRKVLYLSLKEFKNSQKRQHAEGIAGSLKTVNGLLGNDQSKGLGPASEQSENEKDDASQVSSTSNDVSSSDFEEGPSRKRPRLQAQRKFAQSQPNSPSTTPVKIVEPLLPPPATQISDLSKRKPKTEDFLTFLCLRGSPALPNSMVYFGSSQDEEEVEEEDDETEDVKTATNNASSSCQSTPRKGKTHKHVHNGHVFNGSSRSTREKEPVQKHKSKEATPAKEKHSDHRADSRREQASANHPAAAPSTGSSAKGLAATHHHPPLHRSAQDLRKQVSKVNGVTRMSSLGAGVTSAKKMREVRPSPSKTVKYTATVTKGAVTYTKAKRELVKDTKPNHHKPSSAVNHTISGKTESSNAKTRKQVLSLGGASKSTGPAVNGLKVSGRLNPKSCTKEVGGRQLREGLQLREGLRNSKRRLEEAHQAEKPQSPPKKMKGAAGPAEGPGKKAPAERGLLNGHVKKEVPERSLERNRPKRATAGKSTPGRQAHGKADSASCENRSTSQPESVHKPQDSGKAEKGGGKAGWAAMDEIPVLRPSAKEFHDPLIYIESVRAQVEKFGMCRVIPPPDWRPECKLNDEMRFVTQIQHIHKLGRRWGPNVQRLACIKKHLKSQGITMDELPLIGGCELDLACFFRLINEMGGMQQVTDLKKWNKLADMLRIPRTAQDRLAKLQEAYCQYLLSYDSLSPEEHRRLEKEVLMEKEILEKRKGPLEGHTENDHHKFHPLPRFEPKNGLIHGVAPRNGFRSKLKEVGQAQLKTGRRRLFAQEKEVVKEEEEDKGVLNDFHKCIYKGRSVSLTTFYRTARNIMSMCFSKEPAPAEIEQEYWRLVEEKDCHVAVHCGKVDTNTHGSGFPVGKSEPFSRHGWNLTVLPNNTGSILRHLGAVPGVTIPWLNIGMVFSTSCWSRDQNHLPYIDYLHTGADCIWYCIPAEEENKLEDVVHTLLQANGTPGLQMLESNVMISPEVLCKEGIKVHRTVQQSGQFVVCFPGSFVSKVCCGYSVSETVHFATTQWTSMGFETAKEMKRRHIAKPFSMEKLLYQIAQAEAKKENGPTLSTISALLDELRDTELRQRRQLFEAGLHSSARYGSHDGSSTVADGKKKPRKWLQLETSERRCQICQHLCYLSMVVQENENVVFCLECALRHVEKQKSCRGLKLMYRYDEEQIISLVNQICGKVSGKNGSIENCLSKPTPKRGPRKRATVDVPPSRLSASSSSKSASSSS
SOX6 (Homo sapiens), P35712-4, sequence (P35712 other isoform, or with tags, fused parts or gaps): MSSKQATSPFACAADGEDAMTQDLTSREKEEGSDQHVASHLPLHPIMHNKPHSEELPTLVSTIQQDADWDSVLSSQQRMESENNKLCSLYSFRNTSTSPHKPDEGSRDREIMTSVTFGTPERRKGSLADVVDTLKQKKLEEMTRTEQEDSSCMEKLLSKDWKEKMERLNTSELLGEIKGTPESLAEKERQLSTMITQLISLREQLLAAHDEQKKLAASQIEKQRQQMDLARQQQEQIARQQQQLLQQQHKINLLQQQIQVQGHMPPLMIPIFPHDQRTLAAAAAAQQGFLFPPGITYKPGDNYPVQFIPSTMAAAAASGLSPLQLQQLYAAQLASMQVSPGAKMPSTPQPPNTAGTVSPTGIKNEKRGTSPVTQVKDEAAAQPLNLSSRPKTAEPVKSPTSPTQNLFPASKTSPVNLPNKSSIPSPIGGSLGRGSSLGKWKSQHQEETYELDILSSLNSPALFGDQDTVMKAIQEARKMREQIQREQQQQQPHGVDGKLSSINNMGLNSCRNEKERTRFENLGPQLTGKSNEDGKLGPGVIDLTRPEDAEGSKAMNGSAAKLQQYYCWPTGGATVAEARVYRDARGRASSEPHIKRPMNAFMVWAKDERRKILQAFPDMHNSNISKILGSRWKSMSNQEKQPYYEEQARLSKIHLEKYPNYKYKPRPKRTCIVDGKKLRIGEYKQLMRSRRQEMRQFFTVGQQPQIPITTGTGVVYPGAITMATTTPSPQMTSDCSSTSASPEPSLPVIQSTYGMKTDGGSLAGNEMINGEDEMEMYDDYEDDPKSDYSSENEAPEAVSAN
TRIM32 (Homo sapiens), sequence (Q13049 whole entry): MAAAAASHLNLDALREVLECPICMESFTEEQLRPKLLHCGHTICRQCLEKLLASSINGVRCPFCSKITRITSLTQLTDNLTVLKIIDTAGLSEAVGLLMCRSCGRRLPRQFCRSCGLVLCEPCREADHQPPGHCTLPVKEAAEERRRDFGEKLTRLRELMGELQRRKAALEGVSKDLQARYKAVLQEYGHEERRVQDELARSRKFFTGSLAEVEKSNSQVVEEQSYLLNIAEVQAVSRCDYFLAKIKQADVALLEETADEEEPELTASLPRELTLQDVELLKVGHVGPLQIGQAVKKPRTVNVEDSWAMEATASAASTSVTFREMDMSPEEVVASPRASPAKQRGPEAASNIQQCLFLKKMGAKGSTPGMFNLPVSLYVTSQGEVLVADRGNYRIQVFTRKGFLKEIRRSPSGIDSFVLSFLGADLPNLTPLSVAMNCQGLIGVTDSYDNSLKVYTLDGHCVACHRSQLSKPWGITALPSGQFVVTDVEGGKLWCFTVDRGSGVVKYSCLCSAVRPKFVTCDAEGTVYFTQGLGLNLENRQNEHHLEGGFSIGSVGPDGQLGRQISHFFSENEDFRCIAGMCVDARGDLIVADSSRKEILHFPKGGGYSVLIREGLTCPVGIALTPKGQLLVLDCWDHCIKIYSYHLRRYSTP
CYP2C9 (Homo sapiens), sequence (P11712 whole entry): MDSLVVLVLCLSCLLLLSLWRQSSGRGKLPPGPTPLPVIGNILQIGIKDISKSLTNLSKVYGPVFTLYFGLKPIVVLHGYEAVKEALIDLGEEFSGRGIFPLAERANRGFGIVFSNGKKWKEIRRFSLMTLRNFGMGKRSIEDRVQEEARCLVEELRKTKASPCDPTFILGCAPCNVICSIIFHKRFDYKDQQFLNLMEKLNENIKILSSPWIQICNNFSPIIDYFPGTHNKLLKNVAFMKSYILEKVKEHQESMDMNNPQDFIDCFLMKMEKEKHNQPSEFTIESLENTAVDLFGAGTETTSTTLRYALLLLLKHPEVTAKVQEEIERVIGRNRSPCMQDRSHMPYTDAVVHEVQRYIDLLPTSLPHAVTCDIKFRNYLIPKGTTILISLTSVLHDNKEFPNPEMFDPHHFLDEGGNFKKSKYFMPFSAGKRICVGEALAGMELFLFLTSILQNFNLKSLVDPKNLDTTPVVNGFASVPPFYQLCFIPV
PGA5 (Homo sapiens), sequence (P0DJD9 16-388): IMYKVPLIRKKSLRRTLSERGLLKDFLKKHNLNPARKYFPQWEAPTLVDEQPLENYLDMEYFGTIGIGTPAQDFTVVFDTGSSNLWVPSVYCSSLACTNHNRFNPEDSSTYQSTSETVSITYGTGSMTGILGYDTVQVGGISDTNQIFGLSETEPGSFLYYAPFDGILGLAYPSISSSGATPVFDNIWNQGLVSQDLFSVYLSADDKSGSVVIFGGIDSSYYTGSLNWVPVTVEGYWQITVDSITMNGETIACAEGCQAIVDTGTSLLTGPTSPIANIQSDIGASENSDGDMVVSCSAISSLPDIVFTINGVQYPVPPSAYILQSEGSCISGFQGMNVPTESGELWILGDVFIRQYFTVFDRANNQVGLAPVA

In the case of “GGGGCCGGGGCCGGGGCCGGGGCCGGGGCCGGGGCCGGG [GGGGCCx6.5 RNA]”, the binding signal came to 4.76 Z-score in data set [1] ([none], delta Z 2.58) and 14 Z-score in [2] ([none], delta Z 10.61).

Turning to GC-scrambled RNA, the binding signal with PGA5 (Homo sapiens) was 2.96 Z-score; in [3], 7.8 Z-score; with ORAOV1 (Homo sapiens), 0.41 Z-score; in data set [4] it was 6.71 Z-score; with ADARB2 (Homo sapiens), -0.2 Z-score; with TRIM32 (Homo sapiens) it was 4.63 Z-score. Also, the binding signal was 0.64 Z-score with JARID2 (Homo sapiens); 2.18 Z-score in data set [1] (scrambled control); 1.21 Z-score with RANGAP1 (Homo sapiens); 4.09 Z-score in the data set with PTER (Homo sapiens); 1.16 Z-score in [5]; 8.06 Z-score with NDST1 (Homo sapiens). Also, the binding signal with CYP2C9 (Homo sapiens) was 1.49 Z-score; in the data set with NUDT6 (Homo sapiens), 8.38 Z-score; with WBP11 (Homo sapiens), -0.17 Z-score; with HMGB2 (Homo sapiens), 1.23 Z-score; with TCL1B (Homo sapiens) it was 5.42 Z-score; with MPP7 (Homo sapiens), 0.3 Z-score. In [2] (scrambled control), the binding signal was 3.43 Z-score.
